A word on the stoichiometry N: it is a count of units in the complex or per binding partner.

The target in test [1] is HIV-1 myristoylated matrix (MA) A45E mutant protein (HIV-1 (pNL4-3 strain)). The test can be described thus: AUC; sedimentation equilibrium, 22,000, 26,000 and 30,000 rpm, 20 °C, pH 5.5, 50 mM sodium phosphates, 100 mM NaCl, 2 mM TCEP; global fit to a monomer–trimer equilibrium model (monomers to trimer), monomer mass 15.6 kDa and n = 3 fixed.
Test [2] addresses HIV-1 myristoylated matrix (MA) Q63R mutant protein (HIV-1 (pNL4-3 strain)). Described as above.
For test [3], the target named is HIV-1 myristoylated matrix (MA) L75G mutant protein (HIV-1 (pNL4-3 strain)). Described as above.
The target in test [4] is HIV-1 myristoylated matrix (MA) protein, wild type (HIV-1 (pNL4-3 strain)). Described as above.
The target of test [5] is HIV-1 myristoylated matrix (MA) T70R mutant protein (HIV-1 (pNL4-3 strain)). The description is as above.
In test [6] the target is HIV-1 unmyristoylated matrix Q63R mutant protein (HIV-1 (pNL4-3 strain)). The test can be described thus: crystal structure; hanging-drop vapor diffusion, 40% PEG 400, 0.1 M sodium acetate (pH 4), 50 mM lithium sulfate; protein at 20 mg/ml; two crystal forms; molecular replacement with PDB 1HIW.

In test [1], “HIV-1 myristoylated matrix (MA) A45E mutant protein (natural protein)” registered a Ka of 2.5e+07 M⁻¹ and a stoichiometry N of 3.

In test [2], “HIV-1 myristoylated matrix (MA) Q63R mutant protein (natural protein)” showed a Ka of 2e+07 M⁻¹ and a stoichiometry N of 3.

In test [3], “HIV-1 myristoylated matrix (MA) L75G mutant protein (natural protein)” registered a Ka of 1e+07 M⁻¹ and a stoichiometry N of 3.

With “HIV-1 myristoylated matrix (MA) protein, wild type (natural protein)”, in test [4], the Ka came to 2e+07 M⁻¹ and the stoichiometry N was determined as 3.

In test [5], “HIV-1 myristoylated matrix (MA) T70R mutant protein (natural protein)” came in with a Ka of 2.8e+07 M⁻¹ and a stoichiometry N of 3.

In the case of “HIV-1 unmyristoylated matrix Q63R mutant protein (natural protein)”, the stoichiometry N in test [6] was 3.

For the origin of these results see article PMC7952133.
